Assay results reported in publication doi:10.1101/2021.04.12.439405 (bioRxiv, 2021).

Target: T1, MukB^KRK (K1114E, R1122E and K1125E) (E. coli, UniProt P22523 1-1486, K1114E | R1122E | K1125E)
T1 sequence (looked up): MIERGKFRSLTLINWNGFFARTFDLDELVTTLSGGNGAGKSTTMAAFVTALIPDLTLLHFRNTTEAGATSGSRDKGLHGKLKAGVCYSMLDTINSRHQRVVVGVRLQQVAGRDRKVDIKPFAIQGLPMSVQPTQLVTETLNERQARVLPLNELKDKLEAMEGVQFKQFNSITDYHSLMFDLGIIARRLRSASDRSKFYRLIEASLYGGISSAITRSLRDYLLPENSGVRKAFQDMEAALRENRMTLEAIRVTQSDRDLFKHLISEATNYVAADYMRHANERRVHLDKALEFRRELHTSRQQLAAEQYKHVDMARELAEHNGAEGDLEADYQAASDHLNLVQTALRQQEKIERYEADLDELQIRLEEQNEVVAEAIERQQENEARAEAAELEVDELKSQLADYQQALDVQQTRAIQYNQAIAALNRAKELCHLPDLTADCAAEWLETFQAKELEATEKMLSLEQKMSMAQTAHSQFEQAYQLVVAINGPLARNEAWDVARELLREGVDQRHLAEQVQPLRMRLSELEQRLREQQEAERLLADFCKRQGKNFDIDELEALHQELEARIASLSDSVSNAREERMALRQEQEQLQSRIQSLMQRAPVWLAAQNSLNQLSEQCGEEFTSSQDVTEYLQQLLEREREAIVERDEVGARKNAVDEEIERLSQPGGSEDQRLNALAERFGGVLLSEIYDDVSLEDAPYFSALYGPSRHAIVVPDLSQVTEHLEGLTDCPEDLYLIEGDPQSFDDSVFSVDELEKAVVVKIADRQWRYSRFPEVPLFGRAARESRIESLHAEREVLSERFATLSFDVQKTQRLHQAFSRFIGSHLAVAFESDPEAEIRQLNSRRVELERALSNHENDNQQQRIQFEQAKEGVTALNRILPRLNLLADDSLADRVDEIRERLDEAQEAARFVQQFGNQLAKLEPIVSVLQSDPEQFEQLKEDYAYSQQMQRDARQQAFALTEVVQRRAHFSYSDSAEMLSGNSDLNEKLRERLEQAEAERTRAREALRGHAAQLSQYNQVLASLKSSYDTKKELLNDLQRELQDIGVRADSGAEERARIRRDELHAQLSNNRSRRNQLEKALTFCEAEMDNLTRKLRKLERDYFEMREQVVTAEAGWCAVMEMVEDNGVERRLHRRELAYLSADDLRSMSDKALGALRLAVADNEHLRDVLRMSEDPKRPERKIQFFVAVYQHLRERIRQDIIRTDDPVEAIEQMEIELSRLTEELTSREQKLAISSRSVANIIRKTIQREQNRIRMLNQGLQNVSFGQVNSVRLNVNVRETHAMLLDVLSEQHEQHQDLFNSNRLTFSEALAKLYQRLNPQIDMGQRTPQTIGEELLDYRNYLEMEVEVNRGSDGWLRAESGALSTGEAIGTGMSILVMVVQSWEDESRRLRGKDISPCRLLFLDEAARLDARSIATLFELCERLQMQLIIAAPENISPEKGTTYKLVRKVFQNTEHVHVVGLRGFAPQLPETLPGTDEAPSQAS
Assay: native gel or EMSA

B1: His-MukF (natural protein, E. coli, UniProt P60293 1-440, looked up)
chain: MSEFSQTVPELVAWARKNDFSISLPVDRLSFLLAVATLNGERLDGEMSEGELVDAFRHVSDAFEQTSETIGVRANNAINDMVRQRLLNRFTSEQAEGNAIYRLTPLGIGITDYYIRQREFSTLRLSMQLSIVAGELKRAADAAEEGGDEFHWHRNVYAPLKYSVAEIFDSIDLTQRLMDEQQQQVKDDIAQLLNKDWRAAISSCELLLSETSGTLRELQDTLEAAGDKLQANLLRIQDATMTHDDLHFVDRLVFDLQSKLDRIISWGQQSIDLWIGYDRHVHKFIRTAIDMDKNRVFAQRLRQSVQTYFDEPWALTYANADRLLDMRDEEMALRDEEVTGELPEDLEYEEFNEIREQLAAIIEEQLAVYKTRQVPLDLGLVVREYLSQYPRARHFDVARIVIDQAVRLGVAQADFTGLPAKWQPINDYGAKVQAHVIDKY
binding result: binds
